For one substance, stoichiometry N results are on record in paper PMC2749211.

This assay addresses SMU.440, hypothetical protein from Streptococcus mutans (Streptococcus mutans). Put plainly: SEC; gel filtration on HiLoad Superdex 75, 20 mM Tris-HCl pH 7.5, 150 mM NaCl. In general terms: SEC sorts molecules by how far they enter the pores of the column.

As to “SMU.440, hypothetical protein from Streptococcus mutans (natural protein)”, the stoichiometry N is 2.

For orientation: stoichiometry N means a count of units in the complex or per binding partner.
